Assay results as given in PMC6981147.

Experiments:
[1] = biological target: Rpn13 proteasome (reconstituted proteasome harboring the rpn1-ARR and rpn10-UIM mutations) (S. cerevisiae) (UniProt P38764)
[2] = biological target: Rpn1 proteasome (reconstituted proteasome harboring the rpn10-UIM and rpn13-pru mutations) (S. cerevisiae) (UniProt P38764)
[3] = biological target: Rpn10/13 proteasome (rpn1-ARR) (S. cerevisiae) (UniProt P38764)
[4] = biological target: Rpn13 proteasome (rpn1-ARR, rpn10-uim) (S. cerevisiae) (UniProt P38764)
[5] = biological target: TM (triple mutant) proteasome (rpn1-ARR, rpn10-uim, rpn13-pru) (S. cerevisiae) (UniProt P38764)
[6] = biological target: Rpn10 proteasome (rpn1-ARR, rpn13-pru) (S. cerevisiae) (UniProt P38764)
[7] = biological target: wild-type proteasome (reconstituted from regulatory particle and core particle) (S. cerevisiae) (UniProt P38764)

Supplementary Table 4: KM of degradation (Michaelis-Menten analysis of initial rates of loss of GFP fluorescence, 25 nM proteasome, 1 mM ATP, 30 °C) [4]	Supplementary Table 4: KM of degradation (Michaelis-Menten analysis of initial rates of loss of GFP fluorescence, 25 nM proteasome, 1 mM ATP, 30 °C) [5]	Supplementary Table 4: KM of degradation (Michaelis-Menten analysis of initial rates of loss of GFP fluorescence, 25 nM proteasome, 1 mM ATP, 30 °C) [7]	Substance	also measured
–	–	–	UBL-GFP-35 (from UniProt P32628 1-80; P00175 1-35)	initial rate of degradation (GFP fluorescence), single turnover, 5 nM substrate, 25 nM proteasome, 1 mM ATP, 30 °C; against Ub5(K48)-GFP-35 or Ub9(K48)-GFP-35 on the same proteasome [1]: > 4 fold
–	–	–	UBL-GFP-95 (from UniProt P32628 1-80)	initial rate of degradation (GFP fluorescence), single turnover, 5 nM substrate, 25 nM proteasome, 1 mM ATP, 30 °C; against Ub5(K48)-GFP-95 on the same proteasome [2]: 4 fold
5720 nM	5280 nM	–	Ub5(K48)-GFP-35: base protein Ub-GFP-35 with a K48-linked chain of four ubiquitins attached to its ubiquitin domain (from UniProt P0CG63 1-76; P0CG63 1-76)	Supplementary Table 4: KM of degradation (Michaelis-Menten analysis of initial rates of loss of GFP fluorescence, 25 nM proteasome, 1 mM ATP, 30 °C) [3]: 58 nM
816 nM	2060 nM	333 nM	Ub5(K63)-GFP-35: base protein Ub-GFP-35 with a K63-linked chain of four ubiquitins attached to its ubiquitin domain (from UniProt P0CG63 1-76; P0CG63 1-76)	Supplementary Table 4: KM of degradation (Michaelis-Menten analysis of initial rates of loss of GFP fluorescence, 25 nM proteasome, 1 mM ATP, 30 °C) [6]: 428 nM
1100 nM	1680 nM	50 nM	Ub9(K48)-GFP-35: base protein Ub-GFP-35 with a K48-linked chain of eight ubiquitins attached to its ubiquitin domain (from UniProt P0CG63 1-76; P0CG63 1-76)	–
